Source: the supplement of paper PMC10567573

B1: VDR (parent)
chain: VTLELSQLSMLPHLADLVSYSIQK

Variants of: B1
Assay: protein stability index of a GFP-peptide fusion (GPS, HEK-293T) (PSI 1-6); higher = more stable
Settings: c terminus: a fixed tail appended
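Further: lentivirally expressed fusions sorted by FACS into six bins by GFP to DsRed ratio, PSI derived from sequencing read proportions per bin multiplied by bin number.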

Protein stability index: each site, then its substitutions
S19: H 2.79, D 2.27, C 2.33, Y 2.42, G 4.13, E 2.05, R 3.25, F 3.49, N 3.84, M 3.08, P 2.63, W 3.07, A 2.23, L 4.2, V 4.3, K 1.68, I 2.76, T 3.23
I22: H 2.34, A 1.56, G 2.47, M 3.49, R 2.12, Q 2.74, T 1.87, K 1.72, C 4.35, D 2.23, V 4.61, F 2.12, P 1.55, W 1.98, S 1.79, Y 3.63, E 1.92, N 2.32
P12: D 3.28, L 3.04, S 2.38, M 2.51, V 2.61, C 3.89, R 3.79, Y 3.69, F 1.44, A 2.4, G 2.02, W 4.36, N 2.22, I 3.14, K 2.72, T 3.29, Q 3.63
V18: F 3.13, T 1.49, Q 2.76, C 4.49, P 1.88, M 2.99, N 1.8, Y 3.48, S 2.94, A 3.69, H 2.04, L 3.33, I 2.79, R 2.57, K 2.69, G 1.78, W 3.29, D 2.24, E 1.73
H13: E 3.51, S 2.57, Y 2.58, K 2.92, P 2.69, T 2.23, D 2.87, A 2.64, F 2.48, I 3.46, Q 1.8, N 2.13, W 1.99, M 4.11, V 1.98, G 2.52, R 2.16
Y20: W 2.91, C 2.66, D 1.35, F 2.41, N 1.81, P 2.3, M 2.91, G 2.73, H 3.24, R 3.61, K 2.33, Q 3.29, I 3.08, A 1.94, S 2.92, E 2.97, L 3.69, T 2.31
S6: I 2.48, T 1.28, M 2.06, Q 2.54, A 2.88, V 3.64, W 2.88, P 2.29, H 3.94, L 3.3, F 2.88, C 2.65, K 1.81, Y 2.27, G 3.13, R 1.52, N 2.58, D 2.16, E 2.77
Q23: W 1.56, T 2.74, C 2.33, K 3.23, L 3.08, E 3.09, G 2.84, Y 1.97, N 2.07, H 5.2, F 4.15, V 2.59, I 2.56, S 2.05, P 1.68
L14: C 2.09, V 3.03, A 2.18, G 1.71, F 2.69, S 1.66, K 2.31, P 1.85, M 3.71, N 1.61, D 2.49, E 2.88, R 1.86, T 2.12, Y 3.47, H 2.6, Q 2.22, W 2.95, I 3.33
K24: G 2.79, D 3.06, C 2.39, I 4.63, E 3.5, H 5.43, A 2.14
M10: R 3.32, D 1.71, P 2.64, L 2.62, S 1.96, F 1.99, E 1.87, W 3.71, Q 2.65, K 1.69, A 2.73, C 3.52, N 2.14, Y 2.33, H 2.76, T 2.87, I 2.35, G 2.09
D16: N 3.07, Q 3.98, T 2.91, F 3.5, G 1.67, M 3.71, S 2.82, K 4.49, H 3, C 3.86, R 3.75, V 3.99, A 3.1, E 4.21, L 3.77, W 2.26, P 3.09, Y 2.31
L17: P 2.77, R 1.62, A 2.04, G 1.33, K 1.68, D 1.7, W 3.14, S 1.6, H 1.98, C 3.09, V 1.66, N 1.77, E 1.87, M 2.75, Q 2.42, T 2.47
L5: R 2.5, W 2.81, Q 2.01, P 1.86, Y 3.55, N 1.93, T 2.04, M 4.44, V 2.65, S 1.92
A15: N 2.99, L 3.63, M 2.78, I 3.26, K 2.64, W 2.67, Y 4.33, Q 2.83, E 1.85, F 2.81, T 2.83, H 4.28, D 3.12, V 3.02, G 2.59, R 2.64, P 2.1, S 2.73
L8: M 3.27, Q 1.54, W 1.82, R 2.25, D 2.91, N 2.35, A 2.74, V 3.88, T 2.85, K 3.33, S 2.16, Y 2.47, C 2.43, G 1.62, E 1.65, P 2.33, H 2.92
S9: H 3.83, E 3.48, Y 2.63, C 2.37, N 3.47, M 3.43, P 1.97, K 3.79, R 3.06, F 2.67, V 2.74, D 2.83, W 3.43, G 3.56, I 3.23, L 2.79, A 2.74, Q 2.24
Q7: E 3.06, C 2.21, R 2.33, I 2.06, G 1.33, M 3.99, S 2.99, V 2.68, H 3.22, A 3.54, T 3.45, D 2.45, L 3.66, P 2.45, N 2.84, W 2.56, K 2.59, Y 2.81
L11: F 2.5, G 1.55, P 3.08, D 1.23, T 2.73, E 1.52, H 3.18, V 2.06, R 1.94, A 1.62, I 3.11, C 2.65, Q 2.42, S 2.19, W 2.6, Y 3.22, N 1.71, M 2.38, K 3.55
S21: Q 1.43, R 2.13, F 3.64, M 1.43, K 2.89, V 3.87, N 3.47, Y 2.45, I 1.89, G 2.48, H 2.5, D 3.11, W 3.16, E 2.84, P 1.05
